Data taken from patent US20230416362A1 (published 2023).

T1: recombinant human TIGIT IgV domain (UniProt Q495A1 22-141)
T1 chain: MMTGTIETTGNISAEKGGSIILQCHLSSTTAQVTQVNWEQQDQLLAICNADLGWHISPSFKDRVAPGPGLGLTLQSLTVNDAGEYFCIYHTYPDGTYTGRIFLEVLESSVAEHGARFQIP

T2: recombinant mouse TIGIT IgV domain (UniProt P86176 29-145)
T2 chain: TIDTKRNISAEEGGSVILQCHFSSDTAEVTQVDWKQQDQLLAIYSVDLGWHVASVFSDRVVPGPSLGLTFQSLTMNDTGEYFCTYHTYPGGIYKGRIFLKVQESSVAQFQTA


Legend:
Experiment in all cases: ELISA
[1] = biological target: T1, recombinant human TIGIT IgV domain
[2] = biological target: T2, recombinant mouse TIGIT IgV domain
cyno TIGIT IgV domain = biological target: cyno TIGIT IgV domain
Sequence of cyno TIGIT IgV domain (Q495A1 other isoform, or with tags, fused parts or gaps): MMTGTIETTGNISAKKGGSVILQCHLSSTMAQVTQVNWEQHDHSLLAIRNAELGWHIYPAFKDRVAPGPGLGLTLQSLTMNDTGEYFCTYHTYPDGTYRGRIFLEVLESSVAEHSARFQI

Row | Binder | EC50 [1] [µM] | EC50 [2] [µM] | EC50 (cyno TIGIT IgV domain) [µM]
1 | 3A9 (antibody, V domains shown) VH: QVQLQQPGAELVRPGSSVKLSCKASGYTFTSYWMHWVKQRPIQGLEWIGNIDPSDSATHYNQKFKDKATLTVDKSSSTAYMHLSSLTSEDSAVYYCARTGIDYGSSYFDYWGQGTILTVSS VL: DIVLTQSPASLAVSLGQRATISCRASQSVSTSSYSYIHWYQQKPGQPPKLLIKYASNLESGVPARFSGSGSGTDFTLNIHPVEEEDTATYYCQHNWEIPRTFGGGTKLEIK | 0.00038 | 0.172 | 0.00446
2 | 7D4 (antibody, V domains shown) VH: QVQLKHSGAELVRPGTSVKMSCKASGYTFTNYWIGWAKQRPGHGLEWIGDIYPGSSFTNSNEKFKGKATLTADKSSSTAYMQFSSLTSEDSAIYYCAKLGRGYWYFDVWGTGTSVTVSA VL: DIVLTQSPAIMSASLGEEITLTCSASSSVSYIHWYQQKSGTSPKLLIYTTSNLASGVPSRFSGSGSGTFYSLTISSVEAEDAADYYCHQWSRYPTFGGGTKLEIK | 0.00013 | – | 0.0213
3 | 2C9 (antibody, V domains shown) VH: DIQLKQSGAELVRPGASVKLSCKASGYTFTDSYINWVKQRPGQGLEWIARFYPGSGNTYYNEKFKGKATLTAEKSSSTAYMQLSSLTSEDSAVYFCAREAWLLFYGMDYWGQGTTVTVSS VL: DIVLTQSPAIMSASPGEKVTISCSANSSVSYMYWYQQKPGSSPKPWIYRTSNLASGVPARFSGSGSGTSYSLTISSMEAEDAATYYCQQYHSYPLTFGAGTKLELK | 0.00023 | 0.138 | 0.0699
